# In IntAct's records for PubMed 20952573:
# B1: Transcriptional regulatory protein RcsB (Escherichia coli (strain K12)), P0DMC7 (parent)
# chain: MNNMNVIIADDHPIVLFGIRKSLEQIEWVNVVGEFEDSTALINNLPKLDAHVLITDLSMPGDKYGDGITLIKYIKRHFPSLSIIVLTMNNNPAILSAVLDLDIEGIVLKQGAPTDLPKALAALQKGKKFTPESVSRLLEKISAGGYGDKRLSPKESEVLRLFAEGFLVTEIAKKLNRSIKTISSQKKSAMMKLGVENDIALLNYLSSVTLSPADKD
# partner: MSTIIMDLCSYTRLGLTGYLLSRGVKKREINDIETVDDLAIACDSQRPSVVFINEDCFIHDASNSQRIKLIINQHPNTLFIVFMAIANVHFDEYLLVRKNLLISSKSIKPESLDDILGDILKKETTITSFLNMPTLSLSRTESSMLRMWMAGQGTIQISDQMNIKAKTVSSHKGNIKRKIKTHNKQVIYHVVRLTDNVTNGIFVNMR
# Variants of: B1
# Conditions: with rcsa_ecoli rcsA
row,Variant,effect of a mutation on the interaction
1,MNNMNVIIADDHPIVLFGIRKSLEQIEWVNVVGEFEDSTALINNLPKLDAHVLITELSMPGDKYGDGITLIKYIKRHFPSLSIIVLTMNNNPAILSAVLDLDIEGIVLKQGAPTDLPKALAALQKGKKFTPESVSRLLEKISAGGYGDKRLSPKESEVLRLFAEGFLVTEIAKKLNRSIKTISSQKKSAMMKLGVENDIALLNYLSSVTLSPADKD [D56E],decreasing interaction
